Laboratory results: patent publication US20190070251A1
Blank lines part the entries; values can stand above or below the substance they belong to.

Assays:
[1] = target: GPR54 G-Protein coupled receptor (cloned human GPR54) (human) (UniProt Q969F8); assay: cell-based or functional assay
[2] = target: human δ opioid receptor (human) (UniProt P41143); assay: Kd of the radioligand, previously determined under these assay conditions; membranes of CHO-K1 cells with recombinant human δ opioid receptor (biphalin series)
Sequence of human δ opioid receptor (human) (P41143 whole entry, stated change not applied): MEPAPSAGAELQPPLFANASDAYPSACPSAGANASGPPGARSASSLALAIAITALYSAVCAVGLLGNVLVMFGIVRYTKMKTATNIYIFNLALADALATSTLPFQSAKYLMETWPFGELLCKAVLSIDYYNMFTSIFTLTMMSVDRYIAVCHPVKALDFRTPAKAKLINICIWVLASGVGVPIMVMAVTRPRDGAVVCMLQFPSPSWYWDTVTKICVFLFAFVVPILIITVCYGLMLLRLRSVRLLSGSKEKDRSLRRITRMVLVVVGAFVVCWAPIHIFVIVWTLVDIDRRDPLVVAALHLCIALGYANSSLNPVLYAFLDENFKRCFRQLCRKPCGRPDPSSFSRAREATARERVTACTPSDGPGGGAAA

[3] = target: human δ opioid receptor (human) (UniProt P41143); assay: Kd of the radioligand, previously determined under these assay conditions; membranes of CHO-K1 cells with recombinant human δ opioid receptor (OGF series)

EC50 (nM) of agonist activation at GPR54 (FLIPR calcium flux) [1]: 10 nM
Fold change compared to metastin [1]: 1 fold
Substance: Kisspeptin-10 (peptide)

Kd [2]: 3.9 nM
Kd [3]: 3 nM
Substance: [3H] DPDPE (peptide)

EC50 (nM) of agonist activation at GPR54; time of release 2 h [1]: 200 nM
Substance: mono-[mPEG-SBC-30K]-[Kisspeptin-10] (peptide)
